This is an account of results in US20030147883A1.

Assay [1] deals with FPR-like receptor 1 (FPRL1) (UniProt P25090). The assay can be described thus: cell-based or functional assay.
For assay [2], the target named is Epitope tagged high affinity fMLP receptor FPR (on ETFR cells) (UniProt P21462). Put plainly: cell-based or functional assay.
Chain of Epitope tagged high affinity fMLP receptor FPR (on ETFR cells) (P21462 whole entry): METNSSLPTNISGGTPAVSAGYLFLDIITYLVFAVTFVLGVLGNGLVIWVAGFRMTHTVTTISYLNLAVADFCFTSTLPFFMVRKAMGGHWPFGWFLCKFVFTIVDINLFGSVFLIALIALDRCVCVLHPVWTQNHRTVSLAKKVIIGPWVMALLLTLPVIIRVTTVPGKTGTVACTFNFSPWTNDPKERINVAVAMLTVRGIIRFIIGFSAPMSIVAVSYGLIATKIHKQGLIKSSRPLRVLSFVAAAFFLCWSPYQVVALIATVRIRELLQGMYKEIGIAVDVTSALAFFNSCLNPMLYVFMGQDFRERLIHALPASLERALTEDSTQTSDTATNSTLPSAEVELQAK

Chain of FPR-like receptor 1 (FPRL1) (P25090 whole entry): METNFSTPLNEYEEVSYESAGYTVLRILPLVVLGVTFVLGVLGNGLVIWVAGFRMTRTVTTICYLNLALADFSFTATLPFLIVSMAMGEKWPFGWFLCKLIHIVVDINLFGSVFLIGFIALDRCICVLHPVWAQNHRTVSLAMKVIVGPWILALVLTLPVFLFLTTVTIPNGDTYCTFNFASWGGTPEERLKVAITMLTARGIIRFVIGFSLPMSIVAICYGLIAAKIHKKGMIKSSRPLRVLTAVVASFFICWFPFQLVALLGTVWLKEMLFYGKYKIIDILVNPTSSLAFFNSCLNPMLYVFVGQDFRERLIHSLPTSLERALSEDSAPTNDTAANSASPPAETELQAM

Turning to “N-formyl-methionyl-leucyl-phenylalanine (fMLP) (peptide)”, the cross-desensitization of Ca^2+ flux in FPRL1/293 cells in assay [1] was determined as 100000 fold excess. In assay [2], this substance registered a Ca^2+ mobilization in ETFR cells, minimal effective dose of 100 pM.
